Measured values: the supplement of paper PMC10567573
± gives the standard deviation.

Test: protein stability index of a GFP-peptide fusion (GPS, HEK-293T) (PSI 1-6); higher = more stable
[1] = treatment: DMSO, c terminus: a fixed tail appended
[2] = treatment: MLN4924 1 uM, 8 h, c terminus: a fixed tail appended
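Further: 24-mer peptide tiles fused after GFP, lentivirally expressed, FACS-sorted into six equal bins by GFP/DsRed ratio, decoded by Illumina sequencing, PSI is the read-weighted mean bin number.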

Sequence	protein stability index [1]	protein stability index [2]	protein stability index (treatment: DMSO, c terminus: native)	protein stability index (treatment: MLN4924 1 uM, 8 h, c terminus: native)
LRQAQQNMDPKAAEEEEEEEEEVD [CCND1]	5.64 ± 0.35	5.56 ± 0.33		
LRTLRDFPAEERARVLDRRGCSRV [ANKRD9]	3.91 ± 0.32	4.06 ± 0.29		
LSINRYERKKNLTLALEALVQLRG [ALG2]	2.25 ± 0.36	2.09 ± 0.2		
LSQRVMCNDLFKVNPFQLQQFRAD [TIAF1]	2.48 ± 0.18	2.5 ± 0.32		
LSTSSSPSGTPTNLRRHVPDLESG [DLC1]	4.65 ± 0.26	4.7 ± 0.21		
LSVCPLEGSREHAFQITGVWDASR [PLEKHN1]	2.88 ± 0.24	3.38 ± 0.37		
LTADTKEVTASQEARGLRLSDLED [IRX6]	5.37 ± 0.32	5.35 ± 0.12		
LTGLFKGDKCHSLVGKPKIFIIQA [CASP6]	2.83 ± 0.46	2.93 ± 0.65		
LTRMTRVSEFLKVAEQVGIDKGDI [SNAP91]	3.39 ± 0.23	3.48 ± 0.23		
LTSLHHFMHSRNLYILGNFMQLKC [PNLIPRP1]	2.89 ± 0.32	2.5 ± 0.35		
LTSLLACLPAGPRVYFLKGGYETF [DUSP5]	2.34 ± 0.42	2.36 ± 0.47		
LTTCTSNVAASNAKLALFYDWLFF [INTS3]	2.33 ± 0.45	2.66 ± 0.54		
LVALKCTCCYFKFIIEYYNIRPAD [FBXO34]	2.69 ± 0.38	2.81 ± 0.9		
LVELSAENEKLHQRVEQLTRDLAG [CEBPD]	3.64 ± 0.61	3.73 ± 0.28		
LVLAAVVAWCYYSVSLRKAERLRA [MYORG]	3.27 ± 0.64	3.31 ± 0.33		
LWKMKPRRNLEEDDYLHKDTGETS [STEAP1]	4.07 ± 0.3	4.08 ± 0.42		
LYGQRNSAPEQELLVQDATPVSNS [GFOD1]	4.82 ± 0.098	4.76 ± 0.11		
LYPEGIGARQQQVTTYLHKDYNNL [POMT2]	3.25 ± 0.15	3.35 ± 0.26		
LYSMECAFHPLFSLTSGACRLDYR [TCF25]	2.25 ± 0.72	2.38 ± 0.71		
LYVDSLFFLRGRLDQLLRHVMNPL [PRAME]	3.38 ± 0.99	1.89 ± 0.53		
MAAESLPFSFGTLSSWELEAWYED [DDIT3]	3.21 ± 0.074	3.45 ± 0.23		
MAATCEISNIFSNYFSAMYSSEDS [ELF3]	2.29 ± 0.22	2.3 ± 0.21		
MAEHRSMDGRMEAATRGGSHLQAA [SCNN1D]	4.56 ± 0.27	4.648 ± 0.04		

Sequence	protein stability index [1]	protein stability index [2]	protein stability index (treatment: DMSO, c terminus: native)	protein stability index (treatment: MLN4924 1 uM, 8 h, c terminus: native)
MAFFLCLGLALGAVFSFLFRAIV [SLC29A1]			4.33 ± 0.19	4.14 ± 0.24
MAKFGVHRILLLAISLTKCLESTK [MIA2]	3.27 ± 0.52	3.06 ± 0.8		
MAKKHKKIRLRCQKGIPPSLRGRA [TBC1D10A]	3.29 ± 0.18	3.35 ± 0.29		
MAMAVMLYYSNFVLALEERFGVRP [MFSD9]	3.3 ± 0.47	3.41 ± 0.49		
MAQTVPPCELPCKEYDVARNTGAY [TEKT4]	4.16 ± 0.27	4.08 ± 0.26		
MDADMDYERPNVETIKCVVVGDNA [RHOBTB1]	4.8 ± 0.1	4.83 ± 0.14		
MDLKTAVFNAARDGKLRLLTKLLA [FEM1C]	2.17 ± 0.2	2.3 ± 0.32		
MDQLQGLGSDYEQPLEVKNNSNLQ [CDC25A]	5.09 ± 0.17	4.85 ± 0.18		
MEKKSKPKNSVWKRLKSPFRKKKD [RIT1]	3.69 ± 0.12	3.88 ± 0.3		
METQAEQQELETLPTTKMAQTNPT [CRYBA1]	5.24 ± 0.3	5.3 ± 0.29		
MGEPAGVAGTMESPFSPGLFHRLD [ATF6]	3.58 ± 0.14	3.79 ± 0.36		
MGETKIIYHLDGQETPYLVKLPLP [DVL3]	2.2 ± 0.3	2.3 ± 0.23		
MGPKTLPQLAGKWQVLCMLSLCCW [PCDHGC5]	3.21 ± 0.49	3.17 ± 0.76		
MGRKKKKQLKPWCWYCNRDFDDEK [ZNF207]	2.39 ± 0.33	3.05 ± 0.34		
MIQTSKTEITELRRTLQGLEIELQ [KRT13]	3.02 ± 0.28	3.07 ± 0.24		
MLERIKHEKTVDIYGHVTLMRAQR [PTPRD]	1.73 ± 0.22	2.16 ± 0.38		
MLGKYGSSLEFTELLTLVNRKVSQ [CASP6]	2.29 ± 0.23	2.34 ± 0.43		
MLLPQLCWLPLLAGLLPPVPAQKF [SMOC2]	3.51 ± 0.69	3.67 ± 1.4		
MNDFGIKNMDQVAPVANSYRGTLK [ETS2]	4.06 ± 0.31	4.02 ± 0.26		
MPQSEEHLLEAEPLSPIQASSVHL	4.87 ± 0.17	4.94 ± 0.17		
MRATPLAAPAGSLSRKKRLELDDN [TRIB3]	4.57 ± 0.14	4.86 ± 0.23		
MRELGLLIFFLFIGVILFSSAVYF [KCNA4]	2.91 ± 0.35	2.03 ± 0.64		
